What was measured:
MLL1 PHD3 (Homo sapiens) = MLL1 PHD3 (Homo sapiens) (UniProt Q03164); details: cited from earlier work
FL-Cyp33 [1] = target: T1, FL-Cyp33 (human, UniProt Q9UNP9 1-301); assay: EMSA; EMSA: SELEX buffer (composition in S2 Table, not in material; physiological salt is 135 mM KCl, 15 mM NaCl) + 10% glycerol, 5 nM RNA, 0.5X TBE 8% PAGE at room temperature; NMR: SELEX buffer + 10% D2O, 25 C; pH not given; details: protein: recombinant, 6xHis-thrombin construct for NMR, hairpin (predicted)
FL-Cyp33 [2] = target: T1, FL-Cyp33; assay: EMSA; no quantifiable binding by gel shift; EMSA: SELEX buffer (composition in S2 Table, not in material; physiological salt is 135 mM KCl, 15 mM NaCl) + 10% glycerol, 5 nM RNA, 0.5X TBE 8% PAGE at room temperature; NMR: SELEX buffer + 10% D2O, 25 C; pH not given; details: protein: recombinant; 6xHis-thrombin construct for NMR; single strand
Cyp33-Cyp = Cyp33-Cyp (human, UniProt Q9UNP9 131-301); assay: NMR 1H-15N HSQC; no significant perturbation; EMSA: SELEX buffer (composition in S2 Table, not in material; physiological salt is 135 mM KCl, 15 mM NaCl) + 10% glycerol, 5 nM RNA, 0.5X TBE 8% PAGE at room temperature; NMR: SELEX buffer + 10% D2O, 25 C; pH not given; details: protein: recombinant; tags: C-terminal 6xHis, pET15b; label: 5'-32P (EMSA); hairpin (predicted)
Sequence of Cyp33-Cyp (Q9UNP9 131-301): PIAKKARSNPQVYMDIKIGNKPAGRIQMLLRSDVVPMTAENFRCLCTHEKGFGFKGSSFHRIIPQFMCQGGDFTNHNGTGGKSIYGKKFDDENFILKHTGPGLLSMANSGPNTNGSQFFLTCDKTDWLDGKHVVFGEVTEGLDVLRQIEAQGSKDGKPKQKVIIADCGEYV

T1 sequence (Q9UNP9 whole entry): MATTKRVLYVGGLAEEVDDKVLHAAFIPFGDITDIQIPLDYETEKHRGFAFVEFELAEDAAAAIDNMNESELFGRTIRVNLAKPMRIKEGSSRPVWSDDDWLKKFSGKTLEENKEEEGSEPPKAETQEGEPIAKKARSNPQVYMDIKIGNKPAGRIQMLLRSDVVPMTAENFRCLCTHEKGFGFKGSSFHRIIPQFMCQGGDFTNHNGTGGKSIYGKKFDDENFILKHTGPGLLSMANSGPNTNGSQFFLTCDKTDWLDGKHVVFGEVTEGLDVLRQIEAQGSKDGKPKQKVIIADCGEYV
Sequence of MLL1 PHD3 (Homo sapiens) (Q03164 1566-1627): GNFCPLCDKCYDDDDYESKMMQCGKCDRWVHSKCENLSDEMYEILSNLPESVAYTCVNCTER
Sequence of Cyp33 RRM (Q9UNP9 3-87): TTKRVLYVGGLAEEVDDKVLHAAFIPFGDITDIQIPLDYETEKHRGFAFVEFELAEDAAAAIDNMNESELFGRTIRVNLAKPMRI

Molecule	Kd (FL-Cyp33 [1]; label: 5'-32P)	other results
Cyp33 RRM (from UniProt Q9UNP9)	–	Kd (MLL1 PHD3 (Homo sapiens)): 1.9 µM
SO-8 (structured_RNA) RNA: AGAACAAUAAUUACAAAGACUGAGCGUUUUAAAGUCUCCUCAUGUGCCCCC	24 ± 13 µM	–
AGGUGCCUCAAAUCCGCAUAAGAAUAACAACAUGGAGUGAAGCGCUCCCC (structured_RNA) [SO-6]	36 ± 10 µM	–
AGUGAUAAUUAA (ssRNA) [SO-1 single-stranded region 12-mer]	–	binding result (FL-Cyp33 [2]): no binding
UGGUAGACCAGUGAUAAUUAACCUGAUG (structured_RNA) [SO-3]	32 ± 2.5 µM	–
UGGCCGGCCCAUCCCGACUGCCGGGUGAUAGACUCUUUAGCGAUUUAUGG (structured_RNA) [SO-4]	55 ± 10 µM	–
AAUAAUAA (ssRNA) [AAUAAUAA k-mer]	–	binding result (FL-Cyp33 [2]): no binding
AAAGUGAGAUAAGGUAACAACAAGAAUAAUAAUAUACCUAUCAUCUUGCC (structured_RNA) [SO-9]	~90 µM	–
CAGGUGUGUGACUACGAAAGAACAAUAAUAACACAAAAGAGUCCCGUGCC (structured_RNA) [SO-2]	21 ± 3.1 µM	–
UGGUAGACCAGUGAUAAUUAACCUGAUGCGUGGAGGAUAUCGAGUUGUCC (structured_RNA) [SO-1]	–	Kd (FL-Cyp33 [1]; label: 5'-32P (EMSA)): 6.6 ± 0.6 µM; binding result (Cyp33-Cyp): no binding

Reference: PMC7894885, “Cyp33 binds AU-rich RNA motifs via an extended interface that competitively disrupts the gene repressive Cyp33-MLL1 interaction in vitro”
